Laboratory results from US6734286 (CELLTECH R AND D, dated 2004).

Target: T1, Recombinant human IL-5 (human, UniProt P05113 20-134)
T1 construct: also called human interleukin-5; hIL-5
T1 sequence (looked up): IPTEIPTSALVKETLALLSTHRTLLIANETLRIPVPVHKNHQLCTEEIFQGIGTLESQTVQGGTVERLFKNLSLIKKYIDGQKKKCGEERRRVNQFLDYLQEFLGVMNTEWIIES
Test: BIAcore; antibody captured by polyclonal anti-human Fc, recombinant human IL-5 as analyte
Procedure: Affinities of the chimeric and CDR grafted anti-IL-5 antibodies were determined using Biospecific Interaction Analysis (BIA). Antibodies were produced in CHO cells by transfection of combinations of heavy and light chain genes and purified from culture supernatants on Protein A Sepharose. […] The amount of anti-IL-5 captured for each run was approximately 1600 RU. Recombinant human IL-5 was then passed over the Sensorchip at various concentrations (0.6 to 5 µg/ml) in the above buffer. The Sensorchip was cleaned after each run with 100 mM HCl and 100 mM orthophosphoric acid to remove bound IL-5 and antibody. The sensorgrams generated were analysed using the kinetics software available with the BIAcore machine.

- binding result: binds
B1: CTIL-5-10 gH/gL6 antibody (antibody, V domains shown)
VH: EVQLVESGGGLVQPGGSLRLSCAVSGLSLTSNSVNWIRQAPGKGLEWVGLIWSNGDTDYNSAIKSRFTISRDTSKSTVYLQMNSLRAEDTAVYYCAREYYGYFDYWGQGTLVTVSS
VL: DIQMTQSPSSLSASVGDRVTITCLASEGISSYLAWYQQKPGKAPKLLIYGANSLQTGVPSRFSGSGSATDYTLTISSLQPEDFATYYCQQSYKFPNTFGQGTKVEVKR
notes: Human constant domains; also called CTIL-5-10 gH/qL6; CDR grafted 39D10
